Test system: MS2 coat protein
Experiment: apparent KD of MS2 coat protein; designed switch direction (-1 OFF switch, 1 ON switch): 1; higher = weaker reporter binding
Method in brief: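 For each design, the apparent KD is the median over clusters of curves fitted to normalised cluster fluorescence. Clusters held RNA switches with common flanks, transcribed on Illumina chips by stalled E. coli RNA polymerase. These were titrated with SNAP-549-labelled MS2 coat protein, doubling from 0.7 or 1.5 nM to 3 µM, without input, with 200 uM small-molecule ligand, or with an oligonucleotide input.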

[1] = Eterna round: R95, input ligand: FMN 200 uM
[2] = Eterna round: R95, input ligand: microRNA oligo, concentration not stated
[3] = Eterna round: R95, input ligand: none
[4] = input ligand: microRNA oligo, concentration not stated

| Sequence | apparent KD of MS2 coat protein [1] | apparent KD of MS2 coat protein [2] | apparent KD of MS2 coat protein [3] | apparent KD of MS2 coat protein (input ligand: FMN 200 uM) | apparent KD of MS2 coat protein [4] | apparent KD of MS2 coat protein (input ligand: none) |
| --- | --- | --- | --- | --- | --- | --- |
| UACAAUCUAUCUGAGGAUAUCAUGAAUUACACAUGAGGAUCACCCAUGUGCAGGAAAACUGCAUAUGAGAAGGCAGAUAGAUUGU [salish99_ss2_r3_065] (puzzle: Same State 2) | 81 nM | 1060 nM | 1970 nM | – | – | – |
| UGGUACAUGGGAGGAUAUCUCAUGGAGACAUGAGGAUCACCCAUGUAGUUGGGCCGGAAACGGUGAGAGAAGGCCCAUGUACCU [JL SSNG1 3.71] (Eterna round: R96, puzzle: Same State NG 2) | – | – | – | 377 nM | 338 nM | 473 nM |
| UUGUUUUGAAAUUAACAUGAGGAUCACCCAUGUCGUGAGACAGAGGAUAUACAGGAAUGUAGGUAGUAGAAGGCUGUUUAGUGU [JR_SSNG3_Sub099] (Eterna round: R96, puzzle: Same State NG 3) | – | – | – | 99.4 nM | 95.6 nM | 142 nM |
| AACAAGUUUUUGCUCGCUUAUAAGCAUGUACAUGAGGAUCACCCAUGUCAUGUACAAAGUCCAGCCUGAGCUGGACA [Reversing mir to lane 1] (puzzle: Sensor for hsa-mir-208a) | 24.5 nM | 15.5 nM | 25.4 nM | – | – | – |
| GUAGCAUACCGAGGAUAUUCAUAUUACAUGAGGAUCACCCAUGUUAUAGGCCGAUUACGGCCUUGGGAGAAGGCGGAAUGCUAC [Xeonanis - 20 Mod24] (Eterna round: R96, puzzle: Same State NG 2) | – | – | – | 17.4 nM | 38.1 nM | 37.6 nM |
| GCGAGCGUACUUGCAACAUGAGGAUCACCCAUGUUAACUGGACAGGAUAUGGUACCGUUUCGGUACCAGAAGGGUUCCUCAAUG [JL SSNG3 3.62] (Eterna round: R96, puzzle: Same State NG 3) | – | – | – | 295 nM | 116 nM | 214 nM |
| UUUAGUUGCGCGCAGGAUAUGUAUUAAUAUACAUGAGGAUCACCCAUGUGAGAUCGAAUAGAUCUGCAGAAGGGCGAAUCGCGAC [Laonerce - 27] (puzzle: Same State 2) | 52.7 nM | 361 nM | 772 nM | – | – | – |
| AAUUAAUUAAUACAUGAGGAUCACCCAUGUAAUUAUUAGAUCAAGGAUAUCAGCUCGAUUAGAGCUGAGAAGGUGAUCACAUGU [SSNG3/18-A2] (Eterna round: R96, puzzle: Same State NG 3) | – | – | – | – | 282 nM | – |
| UUCUCCUUUUUUUACAUGAGGAUCACCCAUGUUUUUCUUACGUAGGAUAUCGUUGAGUGUUUGUACGAGAAGGACGUAGUAAGU [JR_SSND3_Sub059] (Eterna round: R96, puzzle: Same State NG 3) | – | – | – | 37.9 nM | 50.5 nM | 67.9 nM |
| GUGGUCAGACAUGAGGAUCACCCAUGUGGAAUAAAUAAGGUACAGGAUAUCUAAUAUAGGAUAUAAGAGAAGGGUAGGUUGGUG (Eterna round: R96, puzzle: Same State NG 3) | – | – | – | – | 55.9 nM | – |
| UACAAACGCGGAGGAUAUGGGCGAGGCGCAGAGGUCUGCGUCAAAACAUGAGGAUCACCCAUGUCCCAGAAGGCCGCGCAAACU [Anorra] (Eterna round: R96, puzzle: Same State NG 2) | – | – | – | 16.3 nM | 73.8 nM | 56.1 nM |
